Target: T1, ErbB2 (UniProt P04626 23-1255, limits assumed)
T1 construct: also called Her2; HER2
Assay: not described (data not shown)

B1: Erbin1-693βgal, fusion protein containing the N-terminal 693 aa residues of Erbin and β-galactosidase (other, mouse, UniProt Q80TH2 1-693, looked up)
chain: MTTKRSLFVRLVPCRCLRGEEETVTTLDYSHCSLEQVPKEIFTFEKTLEELYLDANQIEELPKQLFNCQSLHKLSLPDNDLTTLPASIANLINLRELDVSKNGIQEFPENIKNCKVLTIVEASVNPISKLPDGFSQLLNLTQLYLNDAFLEFLPANFGRLTKLQILELRENQLKMLPKTMNRLTQLERLDLGSNEFTEVPEVLEQLSGLREFWMDGNRLTFIPGFIGSLRQLTYLDVSKNNIEMVEEGISTCENLQDFLLSSNSLQQLPETIGSLKNVTTLKIDENQLMYLPDSIGGLRSIEELDCSFNEIEALPSSIGQLTNMRTFAADHNYLQQLPPEIGNWKNITVLFLHCNKLETLPEEMGDMQKLKVINLSDNRLKNLPFSFTKLQQLTAMWLSDNQSKPLIPLQKETDTETQKMVLTNYMFPQQPRTEDVMFISDNESFNPALWEEQRKQRAQVAFECDEDKDEREAPPREGNLKRYPTPYPDELKNMVKTVQTIVHRLKDEETNEESGRDLKQHEDQQVVNKDKCVKTSESTTTKSKLDEREKYMNSVQKMSEPEAETNGGNLPVTASMKLSGNLKHIVNHDDVFEESEELSSDEEMKMAEMRPPLIESSINQPKVVALSNNKKDDAKDADSLSDEVTHNSNQNNSNCSSPSRMSDSVSLNTDSSQDTSLCSPVKQTPVDSNSKVR
notes: Expressed in erbin ΔC/ΔC mice; lacks residues 694-1450 of mouse Erbin, including the PDZ domain; not shown: β-galactosidase encoded by the inserted lacZ gene
- binding result: no binding

Source: patent publication US20140243268A1 (GEORGIA REGENTS RESEARCH INSTITUTE, published 2014)
